{"source": "patent US20090041754A1", "about": "(Astellas, published 2009)", "binders": {"B1": {"name": "GST fusion DHFR protein (other, human, UniProt P00374 1-187, looked up)", "chain": "MVGSLNCIVAVSQNMGIGKNGDLPWPPLRNEFRYFQRMTTTSSVEGKQNLVIMGKKTWFSIPEKNRPLKGRINLVLSRELKEPPQGAHFLSRSLDDALKLTEQPELANKVDMVWIVGGSSVYKEAMNHPGHLKLFVTRIMQDFESDTFFPEIDLEKYKLLPEYPGVLSDVQEEKGIKYKFEVYEKND", "notes": "domain: complete length; Expressed in E. coli BL21 and purified on glutathione Sepharose beads (45 kDa); also called GST-DHFR; not shown: GST tag of vector pGEX-6P-1 (Amersham)"}}, "target": "T1, human ATP5B protein with C-terminal V5 epitope, made in vitro from pcDNA-ATP5B (human, UniProt P06576 1-529, radioisotope-labelled (L-[35S] Pro-mix))", "T1 construct": "In vitro transcription and translation (TNT system); about 60 kDa; also called wild type ATP5B", "T1 sequence (P06576 whole entry)": "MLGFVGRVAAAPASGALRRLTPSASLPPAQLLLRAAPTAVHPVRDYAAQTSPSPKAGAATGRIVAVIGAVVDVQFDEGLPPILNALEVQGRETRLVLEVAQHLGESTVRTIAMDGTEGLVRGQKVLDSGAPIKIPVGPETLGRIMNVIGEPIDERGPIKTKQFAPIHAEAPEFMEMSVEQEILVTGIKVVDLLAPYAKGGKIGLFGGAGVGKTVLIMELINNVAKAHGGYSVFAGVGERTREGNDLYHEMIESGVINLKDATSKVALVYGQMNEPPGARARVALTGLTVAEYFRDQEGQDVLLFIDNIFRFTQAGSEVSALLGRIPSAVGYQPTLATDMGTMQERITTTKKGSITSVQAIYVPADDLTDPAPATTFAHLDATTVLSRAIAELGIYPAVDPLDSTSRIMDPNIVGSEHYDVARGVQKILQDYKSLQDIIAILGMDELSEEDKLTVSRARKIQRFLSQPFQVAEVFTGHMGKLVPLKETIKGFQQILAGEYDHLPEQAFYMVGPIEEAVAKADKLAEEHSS", "assay": "GST pull-down of 35S-labelled in vitro translated human ATP5B with GST-DHFR on beads, autoradiography; condition without MTX-phenformin", "procedure": "A 15 μl portion of this human ATP5B protein preparation liquid and 1 μg for each of the GST protein or GST-DHFR, purified on the glutathione Sepharose beads, were mixed and shaken at 4° C. for 1 hour after adding 0.3 ml of buffer A thereto. Thereafter, the protein binding to the GST protein or GST-DHFR on beads was co-precipitated by centrifugation."}
{"binder": "B1", "values": [{"measurement": "binding result", "result": "no binding"}]}
